Results published in US7906616B2, “Truncated DANCE, DANCE complex and method of using these” (Kansai Medical University, priority 2004, dated 2011).

Assays:
[1] = tested on: vascular endothelial cells; assay: Vascular endothelial cell adhesion assay; format: cell-based
Source text: Full-length DANCE promotes the adhesion and extension of vascular endothelial cells via cell surface integrin. The present inventor has reported to date that full-length DANCE can serve as a ligand for the integrins αvβ3, αvβ5, and α9β1. Since the domain serving as the ligand is considered to be around the RGD motif of the amino-terminal domain of DANCE, each recombinant protein of a DANCE mutant wherein RGD was replaced with RGE for one-amino-acid substitution (RGE DANCE), and amino-terminal cleaved form of DANCE (ΔND DANCE) were purified, and these, along with full-length DANCE, were subjected to vascular endothelial cell adhesion assay (FIG. 13).

human LTBP2 = biological target: T1, human LTBP2 (Homo sapiens, UniProt Q14767); assay: In vitro binding assay, FLAG-tagged DANCE constructs with Myc-tagged LTBP2; conditions: protein solutions from 293T cells mixed on ice 1 hour, anti-FLAG precipitation, anti-Myc detection
T1 construct: The portion from the 36th amino acid to the stop codon of human LTBP2; expressed in transfected cells; host or cells: 293T cells; culture supernatant mixed with cell extract
Description: (§1) These were performed by methods described in “Molecular Cloning, 3rd Ed.”.
(§2) A human DANCE construct with FLAG tag (FIG. 8), a human DANCE construct with Myc tag, and a human LTBP2 construct were separately transfected to 293T cells. After cultivation in serum-free medium for 48 hours, each culture supernatant and cell extract were mixed, and this was used as the protein solution. A protein solution from the DANCE construct with FLAG tag and a protein solution from DANCE or LTBP2 with Myc tag were mixed on ice for 1 hour, and precipitated with anti-FLAG antibody, and the resulting precipitate was developed by SDS-PAGE, and detected using anti-Myc antibody or anti-FLAG antibody.

human skin fibroblasts = assay: Formation of elastic fibers in cultured human skin fibroblasts; format: cell-based; conditions: protein added to serum-free medium at 4 μg/ml, cultured for 2 weeks
Description: Human fibroblasts were kindly supplied by the Department of Plastic Surgery, Kyoto University Hospital. A cover glass was placed on the bottom of a 24-well plate, on which human fibroblasts were seeded at 7.5×10^4 cells per well, and cultured in a DMEM medium supplemented with 10% FBS at 37° C. in the presence of 5% CO2. After the plate washed with PBS on Day 3, the medium was exchanged with a DMEM/F12 medium not supplemented with FBS, and purified DANCE protein, cleaved form of DANCE protein 4 μg/ml, or FBS was added. Cultivation was continued at 37° C. in the presence of 5% CO2, and the cells were fixed and immunologically stained on Day 14.
On Day 14 of cultivation, the cells were washed with 1 ml of PBS three times, after which they were fixed with 100% methanol at −20° C. for 30 minutes. After washing with PBS, the cells were subjected to blocking with a PBS containing 2% BSA at room temperature for 30 minutes, after which the cells were incubated with the polyclonal anti-elastin antibody (dilution rate 1/100) and the monoclonal anti-FLAG antibody (dilution rate 1/100) at room temperature for at least 1 hour. The cells were washed with PBS and further incubated with the anti-rabbit Alexa Fluor 488 antibody (dilution rate 1/100) and the anti-mouse Alexa Fluor 546 antibody (dilution rate 1/100) at room temperature for 1 hour. After washing with PBS, the cells were fixed with 4% para-formaldehyde at room temperature for 10 minutes and again washed with PBS, after which the sample was mounted onto a glass slide using a DAPI-containing Vectashield. Examination was performed using a confocal microscope.
Human skin fibroblasts were seeded to reach confluency; the medium was replaced with serum-free medium or a medium containing 10% fetal calf serum; the cells were cultured for 2 weeks; the formation of elastic fibers was analyzed by immunostaining with anti-elastin antibody.

human DANCE = biological target: T2, human DANCE (Homo sapiens, UniProt Q9UBX5); assay: In vitro binding assay, FLAG-tagged DANCE constructs with Myc-tagged DANCE; conditions: protein solutions from 293T cells mixed on ice 1 hour, anti-FLAG precipitation, anti-Myc detection
T2 construct: Myc; expressed in transfected cells; host or cells: 293T cells; culture supernatant mixed with cell extract
T2 sequence (Q9UBX5 24-448): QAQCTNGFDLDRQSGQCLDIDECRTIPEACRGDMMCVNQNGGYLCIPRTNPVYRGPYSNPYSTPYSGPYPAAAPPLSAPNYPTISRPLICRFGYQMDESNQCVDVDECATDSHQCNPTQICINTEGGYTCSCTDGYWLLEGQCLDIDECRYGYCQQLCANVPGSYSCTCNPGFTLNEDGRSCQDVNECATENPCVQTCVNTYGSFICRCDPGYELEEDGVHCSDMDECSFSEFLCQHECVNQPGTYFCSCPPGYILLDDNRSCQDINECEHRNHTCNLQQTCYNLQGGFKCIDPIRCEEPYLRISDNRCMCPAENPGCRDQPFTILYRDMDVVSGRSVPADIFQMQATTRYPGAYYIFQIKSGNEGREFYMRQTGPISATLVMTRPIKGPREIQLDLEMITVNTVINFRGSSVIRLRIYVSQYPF
Description: as §1, §2

T1 sequence (Q14767 36-1821): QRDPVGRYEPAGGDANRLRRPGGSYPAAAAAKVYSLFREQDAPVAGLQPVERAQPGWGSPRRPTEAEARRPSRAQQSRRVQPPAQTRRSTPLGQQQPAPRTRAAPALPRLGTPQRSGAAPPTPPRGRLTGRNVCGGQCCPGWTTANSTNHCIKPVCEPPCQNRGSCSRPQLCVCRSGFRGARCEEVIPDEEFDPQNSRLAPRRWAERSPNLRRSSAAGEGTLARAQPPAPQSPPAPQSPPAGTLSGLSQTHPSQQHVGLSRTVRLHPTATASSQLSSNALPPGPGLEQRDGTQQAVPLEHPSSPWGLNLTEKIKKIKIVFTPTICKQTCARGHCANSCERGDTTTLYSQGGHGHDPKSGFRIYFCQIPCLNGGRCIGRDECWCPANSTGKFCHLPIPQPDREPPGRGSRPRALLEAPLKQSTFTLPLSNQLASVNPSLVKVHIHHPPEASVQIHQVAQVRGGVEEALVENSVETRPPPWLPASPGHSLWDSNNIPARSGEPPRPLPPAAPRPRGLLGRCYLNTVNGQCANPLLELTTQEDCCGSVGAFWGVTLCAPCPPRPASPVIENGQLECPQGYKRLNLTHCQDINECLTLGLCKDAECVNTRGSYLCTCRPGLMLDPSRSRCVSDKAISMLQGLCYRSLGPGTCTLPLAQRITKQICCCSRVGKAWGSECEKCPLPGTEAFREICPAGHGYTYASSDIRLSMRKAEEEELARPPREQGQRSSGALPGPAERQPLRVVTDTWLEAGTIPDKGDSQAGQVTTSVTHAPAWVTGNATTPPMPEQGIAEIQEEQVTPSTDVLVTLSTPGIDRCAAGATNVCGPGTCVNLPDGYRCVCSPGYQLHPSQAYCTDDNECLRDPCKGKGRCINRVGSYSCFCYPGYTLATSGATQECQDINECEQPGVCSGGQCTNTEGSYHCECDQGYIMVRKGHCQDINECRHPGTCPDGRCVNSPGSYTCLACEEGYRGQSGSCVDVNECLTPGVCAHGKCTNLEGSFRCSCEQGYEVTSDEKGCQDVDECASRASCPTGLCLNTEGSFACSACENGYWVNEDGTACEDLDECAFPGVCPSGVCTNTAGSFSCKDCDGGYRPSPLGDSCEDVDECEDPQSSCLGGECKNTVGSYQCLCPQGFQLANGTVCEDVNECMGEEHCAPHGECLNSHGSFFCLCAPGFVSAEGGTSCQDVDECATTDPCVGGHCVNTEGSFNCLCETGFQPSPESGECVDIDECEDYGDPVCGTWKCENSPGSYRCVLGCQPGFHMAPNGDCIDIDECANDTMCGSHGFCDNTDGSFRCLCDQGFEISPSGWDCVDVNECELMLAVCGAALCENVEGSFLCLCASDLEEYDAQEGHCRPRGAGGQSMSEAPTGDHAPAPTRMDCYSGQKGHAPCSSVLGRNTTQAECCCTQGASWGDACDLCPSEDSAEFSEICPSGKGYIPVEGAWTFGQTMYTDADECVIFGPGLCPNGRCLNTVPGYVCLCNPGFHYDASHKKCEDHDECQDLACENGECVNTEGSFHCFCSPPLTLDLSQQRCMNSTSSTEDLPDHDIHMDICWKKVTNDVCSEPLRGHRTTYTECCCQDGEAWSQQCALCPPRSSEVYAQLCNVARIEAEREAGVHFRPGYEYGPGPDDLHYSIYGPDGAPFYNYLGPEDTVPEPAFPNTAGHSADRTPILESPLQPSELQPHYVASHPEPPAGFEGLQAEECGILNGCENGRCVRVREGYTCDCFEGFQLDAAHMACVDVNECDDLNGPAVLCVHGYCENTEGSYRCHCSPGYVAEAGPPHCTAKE

binding of DANCE to each other (human DANCE): no longer binds to each other
B1: ΔND DANCE: amino-terminal cleaved form of DANCE; 78th to 448th amino acids of SEQ ID NO:2 (SEQ ID NO:8) (protein, listed as Homo sapiens)
chain: GPYSNPYSTPYSGPYPAAAPPLSAPNYPTISRPLICRFGYQMDESNQCVDVDECATDSHQCNPTQICINTEGGYTCSCTDGYWLLEGQCLDIDECRYGYCQQLCANVPGSYSCTCNPGFTLNEDGRSCQDVNECATENPCVQTCVNTYGSFICRCDPGYELEEDGVHCSDMDECSFSEFLCQHECVNQPGTYFCSCPPGYILLDDNRSCQDINECEHRNHTCNLQQTCYNLQGGFKCIDPIRCEEPYLRISDNRCMCPAENPGCRDQPFTILYRDMDVVSGRSVPADIFQMQATTRYPGAYYIFQIKSGNEGREFYMRQTGPISATLVMTRPIKGPREIQLDLEMITVNTVINFRGSSVIRLRIYVSQYPF
binding to cell surface integrin ([1]; discussion statement): no longer binds to cell surface integrin
cell adhesion activity ([1]; purified recombinant protein used for coating): absolutely no cell adhesion activity
binding of DANCE to LTBP2 (human LTBP2): stronger binding with LTBP2 than full-length DANCE
formation of elastic fibers (anti-elastin immunostaining) (human skin fibroblasts): the formation of elastic fibers was very little
